Here are results for one protein from article PMC2180222 (The Journal of Cell Biology, 2000).

The data set concerns the molecule itself. As to the kind of experiment: negative-stain electron microscopy.

B1: HIV-1 Rev (natural protein, UniProt P04616 1-116, looked up)
chain: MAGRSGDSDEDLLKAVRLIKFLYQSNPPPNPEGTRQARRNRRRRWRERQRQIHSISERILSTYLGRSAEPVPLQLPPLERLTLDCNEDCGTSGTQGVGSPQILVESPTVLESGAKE
Take B1: the binding result was “binds”.
